This is an account of results in patent publication US20220220212A1 (RESEARCH FOUNDATION FOR THE STATE UNIVERSITY OF NEW YORK, published 2022).

As usually defined, the Kd is the free concentration of one partner at which half of the binding sites on the other are occupied at equilibrium, for simple one-to-one binding. Read a high Kd as weaker binding.

In experiment [1] the target is T1, ECL2 domain of the CCR2 chemokine receptor.
T1 construct: also called CCR2 ECL2; 2nd extracellular loop of CCR2
T1 peptide: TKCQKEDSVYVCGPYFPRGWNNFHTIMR
The experiment can be described thus: binding assay of FIG. 16A,B on the ECL2 domain (method not given).

Experiment [2] deals with T2, biotinylated N-terminal domain CCR2 peptide (murine, biotinylated (position not given)).
T2 construct: Bought from ABclonal; also called CCR2 N-terminal domain; CCR2 N-terminus
T2 peptide: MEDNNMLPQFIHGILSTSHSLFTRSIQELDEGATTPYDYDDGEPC
Kind of experiment: phage ELISA on the N-terminal peptide. How it is done:
Nunc MaxiSorp 96-well plates were coated with NeutrAvidin at 5 μg/mL and incubated overnight at 4° C. The plate was thoroughly washed with 0.1% PBS-Tween (PBST), and 5 μg/mL biotinylated N-terminal domain CCR2 peptide ([…] (SEQ ID NO:58); ABclonal, Woburn, Mass.) added and incubated for 1 h at room temperature. The wells were washed with 0.1% PBST and then blocked with casein blocking buffer for 1 h at room temperature. The wells were washed with 0.1% PBST followed by incubation of serially diluted scFv for 1 h at room temperature before being washed five times with 0.1% PBST. Washes were followed by the addition of 100 uL of the respective horse-radish peroxidase (HRP)-linked monoclonal antibody (mAb) for 1 h at room temperature with rocking. An anti-M13 mAb was used to detect phages (#27-9421-01, GE healthcare, Chicago, Ill.) and an anti-flag mAb was used to detect scFv (#A8592, Sigma Aldrich, St. Louis, Mo.). The wells were washed with 0.1% PBST followed by the addition of TMB-ELISA substrate. After 10 min incubation, 2 M H₂SO₄ was added to stop the reaction. The absorbance was measured at 450 nm with a FilterMax F3 & F5 multi-mode microplate reader (Molecular Devices, Sunnyvale, Calif.). A 1:1 binding ratio Hill model was used to fit the binding interaction data.

B1: ECL2-scFv (scFv)
scFv: DYKDDDDKLQSVLTQPPSASGTPGQRVTISCSGSSSNIGSHTVNWYQQLPGTAPKLLIYRNNQRPSGVPDRFSGSKSGTSASLAISGLRSEDEADYYCAAWDDSLSGVVFGGGTKLTVLGEGKSSGSGSESKASQVTLKESGAEVKKPGASVKVSCKASGYTFTNFYIHWVRRAPGQGLEWMGIINPSDGRTTYAQKFQGRVTMTRDTSTSTLYMELTSLRSEDTAVYYCGRGGHYSNYFGQPSTWGQGTLVTVSSVEAS
notes: the construct as expressed is not described; also called 4h-scFv
Regarding B1, the Kd in experiment [1] came to 5.3 nM.

B2: phage clone 26B (scFv)
scFv: LQSVLTQPPSASGTPGQRVTISCSGSSSNIGSNYVYWYQQLPGTAPKLLIYRNNQRPSGVPDRFSGSKSGTSASLAISGLQSEDEADYYCAAWDDSLNGVVFGGGTELTVLGEGKSSGSGSESKASQVTLKESGAEVKKPGASVKVSCKASGYTFTNFYIHWVRRAPGQGLEWMGIINPSDGRTTYAQKFQGRVTMTRDTSTSTLYMELTSLRSEDTAVYYCGRGGHYSNYFGQPSTWGQGTLVTVSS
notes: also called 26B-scFv
Take B2: in experiment [2], the binding result is “binds”.

B3: phage clone 25B (scFv)
scFv: LQSVLTQPPSVSGAPGQKVTISCSGSSSNIGNNYVSWYQQLPGTAPKLLIYGNNKRPSGIPDRFSGSKSGTSATLGITGLQTGDEADYYCATWDDSLSAVVFGGGTKLTVLGEGKSSGSGSESKASQVTLKESGAEVKKPGASVKVSCKASGYTFTNFYIHWVRRAPGQGLEWMGIINPSDGRTTYAQKFQGRVTMTRDTSTSTLYMELTSLRSEDTAVYYCGRGGHYSNYFGQPSTWGQGTLVTVSS
notes: also called 25B-scFv
Take B3: the binding result in experiment [2] is “binds”.

B4: phage clone 13F (scFv)
scFv: LQAVLTQPSSLSASPGASASLTCILRSDFSVVTQRVYWYQQKPGSPPRYLLRYNSDSDKRLGSGVPSRFSGSKDVSANAASLLISGLQSDDEADYYCVIWHNSAVVFGGGTKLTVLGEGKSSGSGSESKASEVQLLESGAEVKKPGESLKISCKGSGYSFTSYWIGWVRQMPGKGLEWMGIIYPGDSDTRYSPSFQGQVTISADKSISTAYLQWSSLKASDTAMYYCARRPQYYDILTGWHAGWFDPWGQGTLVTVSS
notes: also called 13F-scFv
As for B4, the binding result in experiment [2] is on record as “binds”.
